Assay [1] has as its target T1, intact high molecular weight kininogen (HMWK) (Homo sapiens, UniProt P01042 19-644).
T1 construct: also called intact HMWK; 1-chain HMWK
T1 sequence: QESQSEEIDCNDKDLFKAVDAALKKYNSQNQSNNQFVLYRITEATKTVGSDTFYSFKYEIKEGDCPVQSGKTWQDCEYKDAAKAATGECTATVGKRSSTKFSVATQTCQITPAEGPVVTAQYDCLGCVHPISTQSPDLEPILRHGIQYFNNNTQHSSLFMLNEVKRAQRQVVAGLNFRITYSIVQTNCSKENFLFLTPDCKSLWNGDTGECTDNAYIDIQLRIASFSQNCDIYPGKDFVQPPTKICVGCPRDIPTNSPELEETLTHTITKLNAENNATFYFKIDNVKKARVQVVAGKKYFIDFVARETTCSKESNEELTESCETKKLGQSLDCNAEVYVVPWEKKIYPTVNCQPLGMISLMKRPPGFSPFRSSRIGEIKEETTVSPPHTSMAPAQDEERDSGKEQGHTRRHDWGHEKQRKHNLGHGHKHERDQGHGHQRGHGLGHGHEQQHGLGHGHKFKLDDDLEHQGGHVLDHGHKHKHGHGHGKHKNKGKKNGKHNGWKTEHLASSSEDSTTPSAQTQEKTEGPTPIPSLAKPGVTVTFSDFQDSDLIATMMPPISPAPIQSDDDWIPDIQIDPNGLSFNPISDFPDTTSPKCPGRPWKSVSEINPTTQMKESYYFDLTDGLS
The experiment in a line: ELISA: Fab coated on 96-well plate, LowCross block, biotinylated antigen, streptavidin-HRP; signal over uncoated well. As for the experimental part: Thirty-six purified Fab clones (see Table 2 below) were assessed for binding to cleaved HWMK, intact HMWK, and LWMK using the immunoassay described in Example 1. Specifically, each of the purified Fab clones was immobilized on 96-well assay plates at a concentration of […]) in a total volume of 100 μL in PBS and incubated overnight at 2-8° C. The assay plates were blocked using LowCross blocking buffer. Biotinylated intact HMWK, biotinylated cleaved HMWK or biotinylated LMWK ([…]) was added to each well in a total volume of 100 μL and incubated for 2 hours prior to washing with a wash buffer. HRP-labeled streptavidin was added to each well at a concentration of 100 ng/mL, and the signal was developed using Ultra TMB Substrate. The signal to noise ratio was calculated using the signal observed upon the addition of the biotinylated protein to an uncoated well. (FIG. 2, panels A and B). Based on the ELISA results, the antibodies can be divided among 5 categories (Table 2).
For orientation: ELISA stands for enzyme-linked immunosorbent assay.

In assay [2] the target is T1, intact high molecular weight kininogen …. The experiment in a line: Fab passively immobilized on 384-well plate, biotinylated antigen, streptavidin-HRP. The source says: A: plots the ratio of the result of a 2-chain HWMK binding assay to a LMWK binding assay on the y-axis compared to the ratio of the result of a 2-chain HMWK binding assay to a 1-chain HMWK binding assay on the x-axis for each antibody (Fab) tested. Recombinant Fab fragments were passively immobilized onto 384-well plates prior to addition of biotinylated 2-chain HMWK, 1-chain HMWK, or LMWK, followed by streptavidin-HRP.
The depleted library was then contacted with biotinylated 2-chain HMWK immobilized on streptavidin coated magnetic beads. The beads were extensively washed with PBS buffer and used to infect E. coli for phage output amplification to complete a round of selection. Three rounds of selection were performed prior to screening individual phage colonies by ELISA with biotinylated 1-chain and 2-chain HMWK immobilized on streptavidin coated plates followed by detection with horse radish peroxidase (HRP) conjugated anti-M13 antibody and absorbance detection due to substrate hydrolysis for 3,3′,5,5′-Tetramethylbenzidine (TMB). […] The specificity of each purified Fab was determined by coating 384 well plates and measuring binding to biotinylated 1-chain HMWK, to biotinylated 2-chain HMWK, or to biotinylated LMWK, followed by detection with streptavidin conjugated to HRP and TMB detection.

B1: 559B-M0069-C09 (Fab, V domains shown)
VH: EVQLLESGGGLVQPGGSLRLSCAASGFTFSMYDMHWVRQAPGKGLEWVSSISSSGGYTQYADSVKGRFTISRDNSKNTLYLQMNSLRAEDTAMYYCARDRGLIAAAGGFDPWGQGTLVTVSS
VL: DIQMTQSPSSLSASVGDRVTITCRASQSIGIYLNWYQQKPGTAPKLLIYAASSLQSGVPSRFTGSGSGTDFTLTISSLQPDDFATYYCQRTYGRPLTFGGGTKVEIK
Turning to B1, the binding result in assay [1] was “binds”.

B2: 559B-M0070-H10 (Fab, V domains shown)
VH: EVQLLESGGGLVQPGGSLRLSCAASGFTFSTYGMRWVRQAPGKGLEWVSVISPSGGKTNYADSVKGRFTISRDNSKNTLYLQMNSLRAEDTAVYYCARGRPDYYAMDVWGQGTTVTVSS
VL: QSALTQPPSASGAPGQRVTISCSGSSSNIGSNTVNWYQKLPGTAPKLLIYYNDRRPSGVPDRFSGSKSGNTASLTISGLQAEDEADYYCAAWDDSLSGPVFGGGTKLTVL
notes: also called M070-H10
For the molecule B2, the binding result in assay [2] is “binds”.

B3: 559B-M0004-E08 (Fab, V domains shown)
VH: EVQLLESGGGLVQPGGSLRLSCAASGFTFSMYHMNWVRQAPGKGLEWVSSIYSSGGSTRYADSVKGRFTISRDNSKNTLYLQMNSLRAEDTAVYYCARGVRYGMDVWGQGTTVTVSS
VL: DIQMTQSPSSVSASVGDRVTITCRASQGISSWLAWYQQKPGKAPKLLIYAASSLQSGVPSRFSGSGSGTDFTLTISSLQPEDFATYYCQQANSFPITFGQGTRLEIK
Take B3: the binding result in assay [1] was “binds”.

B4: 559B-M0064-H02 (Fab, V domains shown)
VH: EVQLLESGGGLVQPGGSLRLSCAASGFTFSQYIMGWVRQAPGKGLEWVSSIGSSGVTVYADSVKGRFTISRDNSKNTLYLQMNSLRAEDTAVYYCARGGGVTVLHAFDIWGQGTMVTVSS
VL: QSALTQPASVSGSPGQSITISCTGTSSDVGGYNYVSWYQQHPGKVPKLIIYEGNKRPSGVPDRFSGSKAGNTASLTVSGLQAEDEADYYCTAYGGHSRFYVFGTGTKVTVLG
notes: Purified recombinant Fab; …GQPKANP)
In the case of B4, the binding result in assay [2] is “binds”.

B5: 559B-M0065-B10 (Fab, V domains shown)
VH: EVQLLESGGGLVQPGGSLRLSCAASGFTFSKYFMTWVRQAPGKGLEWVSWISSSGGYTNYADSVKGRFTISRDNSKNTLYLQMNSLRAEDTAVYYCARGAYYYDAFDIWGQGTMVTVSS
VL: DIQMTQSPSSLSASVGDRVTITCRASQSIAIFLNWYQQTPGKPPKLLIYGASTLQSGVPSRFSGSGSGADFTLTISNLQLEDFTTYYCQQSYSTLYTFGQGTKLEIK
For B5, the binding result in assay [1] is given as “binds”.

These data come from patent US20210270842A1 (DYAX, published 2021).
